Experimental findings from publication PMC13246001, “Membrane binding controls the ATPase cycle and localization of MinD in Bacillus subtilis” (eLife, 2026) are described below.

Numbering of substitutions follows the chain as printed. In names and notes the source's numbering stands.

Usually Km stands for the substrate concentration at which the rate is half of its maximum. As usually defined, the kcat is the number of substrate molecules converted per active site and unit of time at saturation.

The target of series [1] is His-MinD (B. subtilis MinD, N-terminally His-tagged) (B. subtilis) (UniProt Q01464).
Substrate in series [2]: Nc1ncnc2c1ncn2[C@@H]1O[C@H](COP(=O)(O)OP(=O)(O)OP(=O)(O)O)[C@@H](O)[C@H]1O
Put plainly: EnzChek phosphate release assay. Conditions: 10 µM MinD, E. coli total lipid liposomes 0.2 mg/ml, Mg2+, 37 °C, HEPES-KOH pH 7.2 protein/liposome buffer. Type of series: biochemical, Bacillus subtilis.

Series [3] concerns the molecule itself. Put plainly: SEC; Superdex200 Increase 10/300 GL, 0.75 ml/min, buffer C (50 mM HEPES-KOH, 150 mM KCl, 10% glycerol, 0.1 mM EDTA, pH 7.2) with 0.4 mM TCEP and 0.2 mM Mg2+-ADP; column calibrated with a gel filtration standard. (In general: SEC sorts molecules by how far they enter the pores of the column.)

In the case of “His-PDZ (soluble C-terminal PDZ domain of B. subtilis MinJ with N-terminal His-tag) (from UniProt O34375 1-397) (domain or fragment)”, the relative ATPase activity (EnzChek phosphate release) of 6 µM His-MinD in the presence of 1, 3 and 5 µM His-PDZ, 0.2 mg/ml liposomes, 2 mM Mg2+-ATP; His-MinD alone = 1; highest value at 3 µM (relative activity) in series [1] is 1.37.

B1: His-MinD (Bacillus subtilis subsp. subtilis str. 168) (protein)
chain: MGEAIVITSGKGGVGKTTTSANLGTALAILGKRVCLVDTDIGLRNLDVVMGLENRIIYDLVDVVEGRCKMHQALVKDKRFDDLLYLMPAAQTSDKTAVAPEQIKNMVQELKQEFDYVIIDCPAGIEQGYKNAVSGADKAIVVTTPEISAVRDADRIIGLLEQEENIEPPRLVVNRIRNHLMKNGDTMDIDEIVQHLSIDLLGIVADDDEVIKASNHGEPIAMDPKNRASIAYRNIARRILGESVPLQVLEEQNKGMMAKIKSFFGVRS
notes: full-length MinD, N-terminal His-tag kept (pET-28a NdeI/XhoI, plasmid NAP013), expressed in E. coli BL21(DE3)pLysS; monomer in ADP, dimerizes in ATPase cycle
For the molecule B1, in series [2], the Km amounted to 0.173 mM and the kcat was 36.27 h⁻¹.

B2: His-MinD-D40A (enzyme, B. subtilis, UniProt Q01464 1-268, looked up)
chain: B1 chain with D40A
notes: MinD of Bacillus subtilis 168 with D40A, made by site-directed mutagenesis of plasmid NAP013 (pET-28a-minD); Same construct as m1 but for the mutation; also called locked dimer; pET-28a-minD-D40A; source: E. coli BL21(DE3)/pLysS, purified (Ni-NTA, SEC) with Mg2+-ADP in the buffers; not shown: His-tag, N-terminal, kept
Take B2: the binding result in series [3] is listed as “binds”.
